Measurements taken from patent US20160264664A1 (Ablynx, published 2016).
Numbering of substitutions follows the chain as printed.

T1: mouse P2X7 (mouse, UniProt Q9Z1M0 1-595)
T1 sequence: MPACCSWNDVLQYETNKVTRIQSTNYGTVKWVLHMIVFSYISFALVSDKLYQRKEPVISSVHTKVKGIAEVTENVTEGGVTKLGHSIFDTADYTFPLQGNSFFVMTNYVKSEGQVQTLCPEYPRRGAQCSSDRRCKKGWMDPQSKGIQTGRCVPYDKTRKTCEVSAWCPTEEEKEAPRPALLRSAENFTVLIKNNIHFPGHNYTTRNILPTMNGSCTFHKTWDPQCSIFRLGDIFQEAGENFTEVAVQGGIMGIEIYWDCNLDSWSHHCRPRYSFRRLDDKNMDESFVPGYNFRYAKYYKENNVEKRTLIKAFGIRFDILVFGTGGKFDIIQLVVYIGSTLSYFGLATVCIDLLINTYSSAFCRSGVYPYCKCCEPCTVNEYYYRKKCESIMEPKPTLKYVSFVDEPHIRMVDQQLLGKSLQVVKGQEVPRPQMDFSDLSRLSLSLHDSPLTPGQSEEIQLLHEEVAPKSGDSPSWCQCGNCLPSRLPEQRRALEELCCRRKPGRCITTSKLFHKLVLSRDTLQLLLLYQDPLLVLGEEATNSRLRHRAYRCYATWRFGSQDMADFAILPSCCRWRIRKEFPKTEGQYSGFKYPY

T2: human P2X7 (human, UniProt Q99572 1-595)
T2 construct: on transfected Hek293 cells; also called hP2X7
T2 sequence: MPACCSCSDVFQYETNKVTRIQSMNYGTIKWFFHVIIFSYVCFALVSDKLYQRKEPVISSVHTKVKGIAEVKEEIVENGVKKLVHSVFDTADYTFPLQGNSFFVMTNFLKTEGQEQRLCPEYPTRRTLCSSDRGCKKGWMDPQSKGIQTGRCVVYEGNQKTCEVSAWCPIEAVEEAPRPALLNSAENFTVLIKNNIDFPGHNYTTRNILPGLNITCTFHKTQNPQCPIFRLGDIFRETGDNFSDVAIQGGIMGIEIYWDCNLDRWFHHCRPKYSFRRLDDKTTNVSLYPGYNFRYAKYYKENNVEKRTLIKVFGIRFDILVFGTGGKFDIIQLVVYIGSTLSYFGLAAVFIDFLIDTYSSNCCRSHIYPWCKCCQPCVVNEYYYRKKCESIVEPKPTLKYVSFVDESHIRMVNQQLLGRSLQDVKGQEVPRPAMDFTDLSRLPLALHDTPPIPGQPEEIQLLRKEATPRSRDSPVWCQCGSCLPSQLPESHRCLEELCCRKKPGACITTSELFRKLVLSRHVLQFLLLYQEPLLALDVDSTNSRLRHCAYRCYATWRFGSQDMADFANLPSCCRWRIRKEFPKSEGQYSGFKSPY

T3: human P2X4 (human, UniProt Q99571 1-388)
T3 construct: whole, on cells; also called hP2X4
T3 sequence (looked up): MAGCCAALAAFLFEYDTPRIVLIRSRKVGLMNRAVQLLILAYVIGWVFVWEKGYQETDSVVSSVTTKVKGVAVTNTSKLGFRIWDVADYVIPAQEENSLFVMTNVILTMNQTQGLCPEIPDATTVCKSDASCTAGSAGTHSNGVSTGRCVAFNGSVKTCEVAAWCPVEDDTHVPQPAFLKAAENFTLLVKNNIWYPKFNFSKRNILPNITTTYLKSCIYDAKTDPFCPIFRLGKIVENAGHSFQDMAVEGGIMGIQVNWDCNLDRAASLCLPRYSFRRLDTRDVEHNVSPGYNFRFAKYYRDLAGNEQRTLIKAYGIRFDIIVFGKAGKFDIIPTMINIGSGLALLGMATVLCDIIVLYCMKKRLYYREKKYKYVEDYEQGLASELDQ

B1: P2X7PMP8C7 (VHH)
VHH: EMQLVESGGGLVQAGGSLRLSCAASGRTFSSLAMGWLRQAPGKEREFVSGISRGGTSTYYADSVKGRFTISRDNAKNTMYLQMNSLKPEDTAVYYCAGSPVLSIVLDTRGLEYWGQGTQVTVSS
notes: family 7; on phage or c-myc/His6-tagged in assays
B2: P2X7PMP8E7 (VHH)
VHH: B1 VHH with M2V
notes: as for B1
B3: P2X7PMP13G9 (VHH)
VHH: EVQLVESGGGLVQAGGSLRLSCVASGRTFSILTMGWFRQAPGKEREFVAAISGIGAIHYADSVKGRFTLSRDNARNTVSLHMNSLKPEDTAVYYCAAKANYESPSRETSYAYWGQGTQVTVSS
notes: family 23; on phage or c-myc/His6-tagged in assays
B4: P2X7PMP13B5 (VHH)
VHH: EVQLVESGGGLVQAGDSLRLSCAASGRTFSSYAMGWFRQAPGKEREFVAAISLSGSMTYYADSMKGRFTISRDNAKNTVYLQMNSLKPEDTAVYYCAAEELGDGLGYLAYRYDYWGQGTQVTVSS
notes: family 19; on phage or c-myc/His6-tagged in assays
B5: P2X7PMP4B4 (VHH)
VHH: EVQLVESGGGLVQAGGSLRLSCAASGRTVSDYGMGWFRQAPGKLREFVASINWSGIYTRYIDSVEGRFTISRDNTKNTLYLQMNNLKAEDTAVYYCAYFLGPNWYSNYGRPSSYDFYGQGTQVTVSS
notes: family 4; on phage or c-myc/His6-tagged in assays
B6: P2X7PMP14F6 (VHH)
VHH: EVQLVESGGGLVQAGGPLRLSCAASGSFFRVNNMAWYRQAPGKQRELVADITRGDRTNYADSVNGRFTISRDNVRNTVYLQMNGLKPEDTAVYYCYARIELGVLEPRDYWGQGTQVTVSS
notes: family 5, 2; on phage or c-myc/His6-tagged in assays
B7: P2X7PMP14G11 (VHH)
VHH: B6 VHH with Q13K, A14P, P17S, A40G, R98T
notes: family 5, 3; on phage or c-myc/His6-tagged in assays
B8: P2X7PMP14F10 (VHH)
VHH: B6 VHH with P17S, S21L, Y94S, V103I
notes: as for B6
B9: P2X7PMP14G4 (VHH)
VHH: B6 VHH with P17S, R19G, S27N, N33T, S62T, V92A
notes: as for B6
B10: P2X7PMP7B4 (VHH)
VHH: EVQLVESGGGLVQAGGSLRLSCAASGRNFGSYTMAWFRQAPGKGREFVSTINWSGGDTDYADSVKGRFTISRDNAKNTVYLQMDSLKPEDTAVYYCAAGLEYMSTIRYTYEYWGQGTQVTVSS
notes: family 10; on phage or c-myc/His6-tagged in assays
B11: P2X7PMP13B8 (VHH)
VHH: EVQLVESGGGLVQPGGSLRLSCAASGLTLTYYNIGWFRQAPGKEREGVSCIDWTDGTTFYADSVKGRFTISTDNAKNTVYLHLNSLEPEDTAVYYCAAGWGRVMTVQHMCADRSLFTSWGQGTQVTVSS
notes: family 13; on phage or c-myc/His6-tagged in assays
B12: P2X7PMP13G4 (VHH)
VHH: EVQLVESGGGLVQAGGSLRLSCAASDRTFGSSTMGWFRQPPGKNREFVATIAWSATTTHYADAVKGRFTVSRDNALNTVYLQMNSLKPEDTAVYYCAATLTWLGIHEYEYNTWGQGTQVTVSS
notes: family 21; on phage or c-myc/His6-tagged in assays
B13: P2X7PMP7G5 (VHH)
VHH: EVQLVESGGGLVQSGGSLRLSCAGSGFSYYIIGWFRQAPGKEREEVSCIRVTDGSTYYTNSVKGRFTMSRDNAENTVYLQMNSLKPEDTAVYSCATECQRWAYPNRIGARGQGTQVTVSS
notes: family 12; on phage or c-myc/His6-tagged in assays
B14: P2X7PMP7D6 (VHH)
VHH: EVQLVESGGGLVQAGGSLRLSCAASGRTFGSSPVGWFRQAPGKERDFVATISWNGVDTHYLDSVKGRFTISRDNAKNTVHLQMHILKPEDTALYYCAASTSGSVYLPYRVYQYDSWGQGTQVTVSS
notes: family 8; on phage or c-myc/His6-tagged in assays
B15: P2X7PMP2A6 (VHH)
VHH: EVQLVESGGDVVQAGGSLRLSCLASGFTFDDYAIGWFRQAPGKEREGISCISSTGNVFYADSVKGRFTISSDKEKNTLYLQMNSLEPEDTAVYHCAAGHFTVDSGKVLLRTDISSWGQGTQVTVSS
notes: family 1; on phage or c-myc/His6-tagged in assays
B16: P2X7PMP13G5 (VHH)
VHH: EVQLVESGGGLVQAGGSLRLSCAASDRTFGSSAMGWFRQAPGKDRDFVAAISWSGSSTHYADSVKGRFTISRDNAKNTMYLQMNSLKPADTAVYTCAASRRAYLPAKVGEYDFWGQGTQVTVSS
notes: family 18; on phage or c-myc/His6-tagged in assays
B17: P2X7PMP7A4 (VHH)
VHH: EVQLVESGGGLVQAGGSLRVSCAASARTGSYSMGWFRQAPGKEREFVSTISWNGADTVYADSVKGRFTISRDNAKDTVYLQMNSLKPEDTAVYYCAGSITSYVSTWQHDYEYWGQGTQVTVSS
notes: family 9; on phage or c-myc/His6-tagged in assays

Target: T1, mouse P2X7
Assay: cell-based or functional assay

Row | Binder | IC50 (nM) against 20 uM NAD (CD62L shedding, Yac-1 cells) | IC50 (nM) against 100 uM ATP (CD62L shedding, Yac-1 cells) | ATP IC50 by 2 uM NB (head prints 'mM'; ligand titration at fixed Nanobody, CD62L shedding, Yac-1 cells)
1 | B1 | 4000 nM | 386 nM | –
2 | B2 | 4000 nM | 576 nM | –
3 | B3 | 136 nM | 35 nM | 0.469 mM
4 | B4 | 3650 nM | 436 nM | 0.2 mM
5 | B5 | – | – | 0.047 mM

Target: T1, mouse P2X7
Assay: phage ELISA, mP2X7-CHO vs control CHO cells
Procedure: (§1) Sub-confluent cells were rinsed with PBS and fixed using 4% paraformaldehyde in PBS for 10 minutes at RT. Fixed cells were washed three times with PBS, and blocked with 2% BSA in PBS for 2 hours. Following blocking, 10-fold diluted culture supernatant containing phage was added and incubated for 1 hour. Cell-bound phage was detected via mouse anti-M13-HRP-conjugate (GE Healthcare, Cat nr. E2886). Rat mAb Hano43 was used as positive control.

Row | Binder | absorption ratio (ELISA)
6 | B6 | 15 ratio
7 | B7 | 30 ratio
8 | B8 | 19 ratio
9 | B9 | 34 ratio

Target: T2, human P2X7
Assay: flow cytometry, Nanobody pre-incubated with anti-Myc-FITC

Row | Binder | binding result
10 | B1 | no binding (tested: 147 nM)
11 | B2 | no binding (tested: 147 nM)
12 | B3 | no binding (tested: 147 nM)
13 | B10 | no binding (tested: 147 nM)
14 | B11 | no binding (tested: 147 nM)
15 | B12 | no binding (tested: 147 nM)
16 | B13 | no binding (tested: 147 nM)
17 | B14 | no binding (tested: 147 nM)
18 | B15 | no binding (tested: 147 nM)
19 | B4 | no binding (tested: 147 nM)
20 | B16 | no binding (tested: 147 nM)
21 | B17 | no binding (tested: 147 nM)
22 | B5 | no binding (tested: 147 nM)

Target: T3, human P2X4
Assay: as above

Row | Binder | binding result
23 | B1 | no binding (tested: 147 nM)
24 | B2 | no binding (tested: 147 nM)
25 | B3 | no binding (tested: 147 nM)
26 | B10 | no binding (tested: 147 nM)
27 | B11 | no binding (tested: 147 nM)
28 | B12 | no binding (tested: 147 nM)
29 | B13 | no binding (tested: 147 nM)
30 | B14 | no binding (tested: 147 nM)
31 | B15 | no binding (tested: 147 nM)
32 | B4 | no binding (tested: 147 nM)
33 | B16 | no binding (tested: 147 nM)
34 | B17 | no binding (tested: 147 nM)
35 | B5 | no binding (tested: 147 nM)

Target: T1, mouse P2X7
Assay: phage ELISA on fixed mP2X7-CHO vs untransfected CHO cells;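 note: phage culture supernatant diluted 10-fold, applied for 1 h to paraformaldehyde-fixed, BSA-blocked cells in 96-well plates, with bound phage read via HRP-linked anti-M13 antibody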
Procedure: as §1

Row | Binder | Fold Cho P2X7/wt (phage ELISA)
36 | B1 | 21 fold
37 | B2 | 16 fold
38 | B3 | 17 fold
39 | B10 | 23 fold
40 | B11 | 24 fold
41 | B12 | 56 fold
42 | B13 | 30 fold
43 | B14 | 18 fold
44 | B15 | 8 fold
45 | B4 | 28 fold
46 | B16 | 35 fold
47 | B17 | 32 fold
48 | B5 | 19 fold
